Molecular target: Myc-tagged dimeric ECDT (Myc-HR-ECDT) (UniProt P12830 731-882)
Test: co-IP

Sequence of Myc-tagged dimeric ECDT (Myc-HR-ECDT) (P12830 731-882): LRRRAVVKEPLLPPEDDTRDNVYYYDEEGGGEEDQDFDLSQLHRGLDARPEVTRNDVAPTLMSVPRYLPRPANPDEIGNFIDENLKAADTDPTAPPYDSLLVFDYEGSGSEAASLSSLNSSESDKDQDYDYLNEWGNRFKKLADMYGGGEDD

B1: p120-catenin, endogenous in HEK293 cells (natural protein, human (endogenous in HEK293), UniProt O60716 1-968, looked up)
chain: MDDSEVESTASILASVKEQEAQFEKLTRALEEERRHVSAQLERVRVSPQDANPLMANGTLTRRHQNGRFVGDADLERQKFSDLKLNGPQDHSHLLYSTIPRMQEPGQIVETYTEEDPEGAMSVVSVETSDDGTTRRTETTVKKVVKTVTTRTVQPVAMGPDGLPVDASSVSNNYIQTLGRDFRKNGNGGPGPYVGQAGTATLPRNFHYPPDGYSRHYEDGYPGGSDNYGSLSRVTRIEERYRPSMEGYRAPSRQDVYGPQPQVRVGGSSVDLHRFHPEPYGLEDDQRSMGYDDLDYGMMSDYGTARRTGTPSDPRRRLRSYEDMIGEEVPSDQYYWAPLAQHERGSLASLDSLRKGGPPPPNWRQPELPEVIAMLGFRLDAVKSNAAAYLQHLCYRNDKVKTDVRKLKGIPVLVGLLDHPKKEVHLGACGALKNISFGRDQDNKIAIKNCDGVPALVRLLRKARDMDLTEVITGTLWNLSSHDSIKMEIVDHALHALTDEVIIPHSGWEREPNEDCKPRHIEWESVLTNTAGCLRNVSSERSEARRKLRECDGLVDALIFIVQAEIGQKDSDSKLVENCVCLLRNLSYQVHREIPQAERYQEAAPNVANNTGPHAASCFGAKKGKDEWFSRGKKPIEDPANDTVDFPKRTSPARGYELLFQPEVVRIYISLLKESKTPAILEASAGAIQNLCAGRWTYGRYIRSALRQEKALSAIADLLTNEHERVVKAASGALRNLAVDARNKELIGKHAIPNLVKNLPGGQQNSSWNFSEDTVISILNTINEVIAENLEAAKKLRETQGIEKLVLINKSGNRSEKEVRAAALVLQTIWGYKELRKPLEKEGWKKSDFQVNLNNASRSQSSHSYDDSTLPLIDRNQKSDKKPDREEIQMSNMGSNTKSLDNNYSTPNERGDHNRTLDRSGDLGDMEPLKGTTPLMQDEGQESLEEELDVLVLDDEGGQVSYPSMQKI
  fold affinity against the monomer (Myc-ECDT): ~10 fold

From PMC2063960 (The Journal of Cell Biology, 2007)
